Results from publication PMC11192940 (2024).

Biological target: GST-Rheb protein (UniProt Q15382 1-169)
Assay: BLI

Chain of GST-Rheb protein (Q15382 1-169): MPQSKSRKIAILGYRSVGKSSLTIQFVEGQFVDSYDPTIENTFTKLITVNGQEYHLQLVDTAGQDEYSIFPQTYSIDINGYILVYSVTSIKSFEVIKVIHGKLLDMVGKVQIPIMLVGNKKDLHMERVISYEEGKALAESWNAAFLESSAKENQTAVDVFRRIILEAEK

B1: His-IL-37d, recombinant human IL-37d protein with a TAT peptide (pET-22b-TAT-his-IL-37d; mature IL-37d 21–197aa) (other)
chain: YGRKKRRQRRREPQCCLEGPKVKNLNPKKFSIHDQDHKVLVLDSGNLIAVPDKNYIRPEIFFALASSLSSASAEKGSPILLGVSKGEFCLYCDKDKGQSHPSLQLKKEKLMKLAAQKESARRPFIFYRAQVGSWNMLESAAHPGWFICTSCNCNEPVGVTDKFENRKHIEFSFQPVCKAEMSPSEVSD
koff: 0.00194 s⁻¹
